The source of these data is patent US8293529B2, “Method for inducing differentiation of pluripotent stem cells into cardiomyocytes” (Daiichi Sankyo Company, Limited, priority 2006, dated 2012).

In one assay the test system is human ES cells. The note with it: rises from 15% without treatment; cited from earlier work.
In assay [1] the test system is mouse ES cells. Nature of the assay: Appearance rate of EBs exhibiting spontaneous beating. To be noted: for occurrence of beating EBs: Wnt proteins added at 10 ng/mL to 50 ng/mL; for appearance rate of beating EBs: recombinant protein added at 1 ng/mL to 100 ng/mL. The assay is classed as cell-based. The procedure: Culture for inducing differentiation of ES cells into cardiomyocytes or neurons was accomplished in a routine manner as follows. ES cells were suspended in LIF-free medium, and the resulting suspension was seeded at 500 cells/50 μL per well of a commercially available 96-well culture plate for spheroid formation (Sumilon Celltight Spheroid; Sumitomo Bakelite Co., Ltd., Japan).
In the early stage of differentiation in ES cells, transient elevations in expression of various Wnt genes were observed prior to the appearance of cardiomyocytes. Then, ES cells at this stage were treated with recombinant Wnt proteins to study the myocardial differentiation-inducing effect of the proteins. Induction of ES cell differentiation was accomplished in the same manner as used in Example 1, except that some of the experimental groups were cultured in medium containing a commercially available recombinant WNT-1 (Peprotech), Wnt-3a (R&D systems) or Wnt-5a (R&D systems) protein. Treatment of ES cells in medium supplemented with a recombinant protein of canonical Wnt such as WNT-1 is hereinafter referred to as “Wnt treatment.”
The above canonical Wnt protein treatment is known to inhibit the action of GSK3β within cells and thereby promote stabilization of β-catenin and its transcription activation ability. Then, further studies were performed to confirm that treatment with various drugs capable of promoting stabilization of β-catenin and its transcription activation ability produced a myocardial differentiation-inducing effect on ES cells, as in the case of Wnt treatment. As drugs capable of promoting stabilization of β-catenin and its transcription activation ability, the following five commercially available compounds were used: GSK3β inhibitors BIO (Calbiochem), GSK3β inhibitor VII (Calbiochem), cell-permeable GSK3β peptide inhibitor (L803-mts; Calbiochem) and SB216763 (Biomol), as well as a Wnt agonist (Calbiochem) that promotes the transcription activation ability of β-catenin without GSK3β inhibition. ES cells were induced to differentiate in the same manner as used in the above Examples, and cultured in medium containing the above compounds during the time period between 48 and 120 hours ([…]) after induction of differentiation, as in the case of recombinant Wnt proteins.

A further assay relates to cmES cells. The experiment in a line: Immunohistochemical staining of marker proteins in EBs from cmES cells. The format is cell-based, common marmoset. The note with it: EBs at 16 days after induction of differentiation. On the procedure: Subsequently, immunohistochemical staining was performed in the same manner as used in Example 2 to confirm that beating cells developed in EBs from the Wnt-treated groups were cardiomyocytes producing specific marker proteins. From EBs in the Wnt-treated groups (Wnt-3a, WNT-1) at 16 days after induction of differentiation, frozen sections were prepared and reacted with anti-sarcomeric myosin antibody, anti-GATA-4 antibody or anti-Nkx-2.5 antibody as a primary antibody. After color reaction, these sections were observed under an optical microscope.

The test system of assay [2] is mouse ES cells. Nature of the assay: Wnt gene expression during induction of differentiation in ES cells (real-time PCR). The format is cell-based. The note with it: BMP antagonist treatment 15 ng/mL, 3 days before and immediately after induction; 72 hours after induction of differentiation; vs untreated group. From the text:
Various Wnt genes were studied for their expression during differentiation in mouse ES cells. For use in experiments, mouse ES cells were passaged and maintained in an undifferentiated state according to the methods as described in “Manipulating the Mouse Embryo: A Laboratory Manual” (Hogan et al., eds., Cold Spring Harbor Laboratory Press, 1994) and “Embryonic Stem Cells: Methods and Protocols” (Turksen ed., Humana Press, 2002) by using Knockout-DMEM (Invitrogen) medium containing 20% fetal bovine serum, 2 mmol/L L-glutamine and 0.1 mmol/L 2-mercaptoethanol (hereinafter referred to as ESM), supplemented with 1000 U/mL LIF (ESGRO; Chemicon). […]
The EBs thus prepared were collected periodically, and total RNA was prepared with an RNeasy mini kit (Qiagen), followed by DNase treatment. cDNA was synthesized from the DNase-treated total RNA (1 μg) using a SuperScript™ First-Strand Synthesis System for RT-PCR (Invitrogen). Analysis of gene expression was performed with an ABI PRISM 7700 (PE Applied Biosystems) by using a real-time polymerase chain reaction (PCR) quantification system with Lux primers to examine the expression level of each gene. The real-time PCR quantification was accomplished by using the above cDNA as a template and using Platinum Quantitative PCR SuperMix-UDG (Invitrogen) according to the instructions attached thereto. […]

The subject of assay [3] is mouse ES cells. The experiment in a line: Immunohistochemical staining of cardiomyocyte-specific marker proteins in EBs. The format is cell-based. To be noted: EBs at 10 days after induction of differentiation. On the procedure:
Subsequently, immunohistochemical staining was performed to confirm that beating cells developed in EBs from the Wnt-treated groups produced cardiomyocyte-specific marker proteins. EBs in the Wnt-treated group (Wnt^48˜120h group) at 10 days after induction of differentiation were freshly embedded in a compound for preparing frozen sections (OCT Compound, Sakura Finetek USA Inc.) and then frozen with liquid nitrogen. The frozen samples were sectioned at 6 μm of thickness and attached on glass slides. These frozen sections were reacted with anti-sarcomeric myosin antibody (MF20; American Type Culture Collection), anti-GATA-4 antibody (C-20; Santa Cruz) or anti-Nkx-2.5 antibody (N-19; Santa Cruz) as a primary antibody and then reacted with a horseradish peroxidase-labeled secondary antibody (Bio-RAD), and finally subjected to a color reaction with ACE (3-amino-9-ethylcarbazole) substrate solution (Nichirei Corporation, Japan) and observed under an optical microscope.

For `Nc1ncn([C@@H]2O[C@H](CO)[C@@H](O)[C@H]2O)c(=O)n1` [5-azacytidine], in the assay on human ES cells, the “percentage of troponin I-positive cells (candidate cardiomyocytes) in EBs” value is given as 44%.

B1: WNT-1: commercially available recombinant human-derived WNT-1 protein (Peprotech), canonical Wnt (protein, listed as Mus musculus)
chain: MGLWALLPSWVSTTLLLALTALPAALAANSSGRWWGIVNIASSTNLLTDSKSLQLVLEPSLQLLSRKQRRLIRQNPGILHSVSGGLQSAVRECKWQFRNRRWNCPTAPGPHLFGKIVNRGCRETAFIFAITSAGVTHSVARSCSEGSIESCTCDYRRRGPGGPDWHWGGCSDNIDFGRLFGREFVDSGEKGRDLRFLMNLHNNEAGRTTVFSEMRQECKCHGMSGSCTVRTCWMRLPTLRAVGDVLRDRFDGASRVLYGNRGSNRASRAELLRLEPEDPAHKPPSPHDLVYFEKSPNFCTYSGRLGTAGTAGRACNSSSPALDGCELLCCGRGHRTRTQRVTERCNCTFHWCCHVSCRNCTHTRVLHECL
Consider B1, for which, in the assay with mouse ES cells [1], the “occurrence of beating EBs” value was “very good occurrence of beating EBs” and the “appearance rate of beating EBs” value is recorded as “significantly higher than in the untreated group”. In the assay with cmES cells, the “cells positive for sarcomeric myosin, GATA-4 and Nkx-2.5” value was “the great majority of EB-constituting cells were found to be positive”.

B2: DAN: commercially available recombinant DAN protein (R&D systems), BMP antagonist (protein, UniProt P41271 17-181, looked up)
Neuroblastoma suppressor of …: AAPPPINKLALFPDKSAWCEAKNITQIVGHSGCEAKSIQNRACLGQCFSYSVPNTFPQSTESLVHCDSCMPAQSMWEIVTLECPGHEEVPRVDKLVEKILHCSCQACGKEPSHEGLSVYVQGEDGPGSQPGTHPHPHPHPHPGGQTPEPEDPPGAPHTEEEGAED
Turning to B2, in the assay on mouse ES cells [2], the “expression levels of the Wnt genes (Wnt-3, Wnt-3a, Wnt-8a)” value was “significantly higher than those of the untreated group”. The “cells positive for sarcomeric myosin, Nkx-2.5 and GATA-4” value in the assay with mouse ES cells [3] was “the great majority of EB-constituting cells were found to be positive”.

B3: Wnt-5a: commercially available recombinant mouse-derived Wnt-5a protein (R&D systems) (protein, listed as Mus musculus)
chain: MKKPIGILSPGVALGTAGGAMSSKFFLMALATFFSFAQVVIEANSWWSLGMNNPVQMSEVYIIGAQPLCSQLAGLSQGQKKLCHLYQDHMQYIGEGAKTGIKECQYQFRHRRWNCSTVDNTSVFGRVMQIGSRETAFTYAVSAAGVVNAMSRACREGELSTCGCSRARPKDLPRDWLWGGCGDNIDYGHPFAKEFVDARERERIHAKGSYESARILMNLHNNEAGRRTVYNLADVACKCHGVSGSCSLKTCWLQLADFRKVGDALKEKYDSAAAMRLNSRGKLVQVNSRFNSPTTQDLVYIDPSPDYCVRNESTGSLGTQGRLCNKTSEGMDGCELMCCGRGYDQFKTVQTERCHCKFHWCCYVKCKKCTEIVDQFVCK
Regarding B3, in the assay with mouse ES cells [1], the “occurrence of beating EBs” value is reported as “very good occurrence of beating EBs” and the “appearance rate of beating EBs” value is listed as “significantly higher than in the untreated group”.

B4: Chordin: commercially available recombinant Chordin protein (R&D systems), BMP antagonist (protein, UniProt Q9H2X0 27-955, looked up)
Chordin: AGPEPPVLPIRSEKEPLPVRGAAGCTFGGKVYALDETWHPDLGEPFGVMRCVLCACEAPQWGRRTRGPGRVSCKNIKPECPTPACGQPRQLPGHCCQTCPQERSSSERQPSGLSFEYPRDPEHRSYSDRGEPGAEERARGDGHTDFVALLTGPRSQAVARARVSLLRSSLRFSISYRRLDRPTRIRFSDSNGSVLFEHPAAPTQDGLVCGVWRAVPRLSLRLLRAEQLHVALVTLTHPSGEVWGPLIRHRALAAETFSAILTLEGPPQQGVGGITLLTLSDTEDSLHFLLLFRGLLEPRSGGLTQVPLRLQILHQGQLLRELQANVSAQEPGFAEVLPNLTVQEMDWLVLGELQMALEWAGRPGLRISGHIAARKSCDVLQSVLCGADALIPVQTGAAGSASLTLLGNGSLIYQVQVVGTSSEVVAMTLETKPQRRDQRTVLCHMAGLQPGGHTAVGICPGLGARGAHMLLQNELFLNVGTKDFPDGELRGHVAALPYCGHSARHDTLPVPLAGALVLPPVKSQAAGHAWLSLDTHCHLHYEVLLAGLGGSEQGTVTAHLLGPPGTPGPRRLLKGFYGSEAQGVVKDLEPELLRHLAKGMASLMITTKGSPRGELRGQVHIANQCEVGGLRLEAAGAEGVRALGAPDTASAAPPVVPGLPALAPAKPGGPGRPRDPNTCFFEGQQRPHGARWAPNYDPLCSLCTCQRRTVICDPVVCPPPSCPHPVQAPDQCCPVCPEKQDVRDLPGLPRSRDPGEGCYFDGDRSWRAAGTRWHPVVPPFGLIKCAVCTCKGGTGEVHCEKVQCPRLACAQPVRVNPTDCCKQCPVGSGAHPQLGDPMQADGPRGCRFAGQWFPESQSWHPSVPPFGEMSCITCRCGAGVPHCERDDCSLPLSCGSGKESRCCSRCTAHRRPAPETRTDPELEKEAEGS
On to B4, for which the “expression levels of the Wnt genes (Wnt-3, Wnt-3a, Wnt-8a)” value in the assay on mouse ES cells [2] was “significantly higher than those of the untreated group”. Moreover, the “regions of EBs exhibiting beating” value in the assay on mouse ES cells [1] (Wnt 48-96 h and 48-120 h groups, Chordin-treated EBs) was “beating throughout virtually all regions of their surface layer”.
